Experimental data from patent US20220119534A1 (DRAGONFLY THERAPEUTICS, published 2022).
Where a chain is given by its changes, count along the chain named. Numbers in names are those of the source. Where “and” joins values, the source holds several entries; their conditions need not be identical. Equal entries are not always repeated. One block for each binder: values may come before it.

Columns and labels:
mFc-cNKG2D = target: T1, mFc-cNKG2D (cynomolgus monkey, UniProt P61252 73-216); assay: SPR Biacore 37 C; mFc-tagged cyno NKG2D dimer, TriNKET as analyte; 1:1 kinetic fit
T1 construct: extracellular domain; Made in house (Dragonfly Tx); also called recombinant cyno NKG2D extracellular domain (ECD); mFc-tagged cyno NKG2D dimer; not shown: mouse Fc tag
T1 sequence (looked up): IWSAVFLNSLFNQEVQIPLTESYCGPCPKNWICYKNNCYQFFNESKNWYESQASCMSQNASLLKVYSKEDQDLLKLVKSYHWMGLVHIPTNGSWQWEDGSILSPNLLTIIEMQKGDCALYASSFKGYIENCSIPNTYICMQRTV

[1] = target: T2, Human CD16a V158 (FcγRIIIa V158) (human, UniProt P08637 17-208, biotinylated (site not stated)); assay: SPR; biotinylated CD16a V158 captured on SA chip, TriNKET as analyte; 1:1 kinetic fit; after 4 wks 40 C in CST pH 7.0, n=3
T2 construct: V158 is the allele name in mature numbering; also called hCD16aV; hCD16a V158
T2 sequence (P08637 17-208 F176V limits assumed): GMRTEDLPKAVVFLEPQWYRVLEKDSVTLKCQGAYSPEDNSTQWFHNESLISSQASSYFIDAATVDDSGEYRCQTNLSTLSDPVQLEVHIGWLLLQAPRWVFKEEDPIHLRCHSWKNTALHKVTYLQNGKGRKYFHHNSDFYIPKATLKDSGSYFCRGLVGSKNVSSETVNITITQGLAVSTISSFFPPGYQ

Human CLEC12A-His = target: T3, Human CLEC12A-His (human, UniProt Q5QGZ9 65-265); assay: SPR; control sample (pH 8 stress study)
T3 construct: Recombinant soluble protein made in house; also called hCLEC12A-His; hCLEC12A; not shown: His tag
T3 sequence: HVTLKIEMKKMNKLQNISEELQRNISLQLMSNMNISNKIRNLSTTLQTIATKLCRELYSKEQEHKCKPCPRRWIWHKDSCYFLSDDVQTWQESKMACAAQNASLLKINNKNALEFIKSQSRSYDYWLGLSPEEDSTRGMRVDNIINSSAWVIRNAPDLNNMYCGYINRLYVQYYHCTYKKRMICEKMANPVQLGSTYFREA

mFc-hNKG2D = target: T4, mFc-hNKG2D (human, UniProt P26718 73-216); assay: SPR; control sample (pH 8 stress study)
T4 construct: extracellular domain; Recombinant mFc-tagged NKG2D dimer, made in house; also called human NKG2D; not shown: mouse Fc tag
T4 sequence (looked up): T1 sequence (looked up) with N43D, I133T

Human CD16a V158 = target: T5, Human CD16a V158 (human, UniProt P08637 17-208, biotinylated); assay: SPR; control sample (pH 8 stress study)
T5 construct: Bought recombinant receptor; also called hCD16a (V158); hFcγRIIIa V158
T5 sequence (P08637 17-208 F176V limits assumed): as the sequence (P08637 17-208 F176V limits assumed) above

Human CD32b = target: T6, Human CD32b (human, UniProt P31994 46-217, limits assumed, biotinylated); assay: SPR, steady state fit; average for AB0192
T6 construct: Bought recombinant receptor; also called hFcγRIIb
T6 sequence (looked up): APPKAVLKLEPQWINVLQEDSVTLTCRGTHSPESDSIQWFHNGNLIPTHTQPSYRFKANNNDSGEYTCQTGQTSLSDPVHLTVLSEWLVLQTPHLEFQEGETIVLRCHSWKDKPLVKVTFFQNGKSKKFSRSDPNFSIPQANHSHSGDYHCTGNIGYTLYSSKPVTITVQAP

Cynomolgus CD64 = target: T7, Cynomolgus CD64 (cynomolgus monkey, UniProt A0A2K5U901 33-309, Probably biotinylated for capture, as in the sister examples (p-1094).); assay: SPR, cynomolgus CD64 captured; average for AB0192
T7 construct: Bought recombinant receptor; also called cFcγRI; Cynomolgus CD64 (FcγRI); not shown: The vendor's biotinylation and purification tag
T7 sequence (A0A2K5U901 entry or part of it limits assumed): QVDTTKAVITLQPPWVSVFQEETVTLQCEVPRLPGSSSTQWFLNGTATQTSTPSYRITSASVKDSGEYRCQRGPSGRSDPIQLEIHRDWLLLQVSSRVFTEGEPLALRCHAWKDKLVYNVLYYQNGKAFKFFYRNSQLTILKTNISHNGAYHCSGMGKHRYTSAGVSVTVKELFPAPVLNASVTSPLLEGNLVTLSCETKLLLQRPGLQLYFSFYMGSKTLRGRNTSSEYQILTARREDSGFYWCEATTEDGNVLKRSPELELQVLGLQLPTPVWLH

[2] = target: T8, human CLEC12A on cells (HL60, PL21, Ba/F3-hCLEC12A) (human, UniProt Q5QGZ9 1-265); assay: flow cytometry, 40 nM, MFI after 2 h 37 C relative to 2 h on ice, PL21 cells
T8 construct: Endogenous on the AML lines HL60 and PL21; brought into mouse Ba/F3 cells by retroviral transduction; The cell line stands under assay; also called CLL-1
T8 sequence: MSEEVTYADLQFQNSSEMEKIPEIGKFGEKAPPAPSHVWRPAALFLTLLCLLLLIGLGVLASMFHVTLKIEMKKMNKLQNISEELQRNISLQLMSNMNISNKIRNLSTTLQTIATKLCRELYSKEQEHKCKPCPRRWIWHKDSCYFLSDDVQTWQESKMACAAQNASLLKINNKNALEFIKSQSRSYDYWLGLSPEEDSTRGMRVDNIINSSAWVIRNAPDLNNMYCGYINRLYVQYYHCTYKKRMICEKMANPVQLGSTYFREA

[3] = target: T9, Human CLEC12A expressed on cells (Ba/F3-hCLEC12A, PL21, HL60) (human, UniProt Q5QGZ9 1-265); assay: cell-based or functional assay
T9 sequence: T8 sequence

[4] = target: T10, mFc-hNKG2D (recombinant mFc-tagged human NKG2D dimer) (human, UniProt P26718 73-216); assay: SPR; after 4 wks 40C in HST pH 6.0
T10 construct: extracellular domain; Made in house; not shown: mouse Fc tag
T10 sequence (looked up): T1 sequence (looked up) with N43D, I133T

[5] = target: T11, Human CD16a V158 (FcγRIIIa V158) (human, UniProt P08637 17-208, biotinylated); assay: SPR; after 4 wks 40C in HST pH 6.0
T11 construct: Bought recombinant receptor; also called hCD16aV; hFcγRIIIa V158
T11 sequence (P08637 17-208 F176V limits assumed): as the sequence (P08637 17-208 F176V limits assumed) above

[6] = target: T12, Human CLEC12A-His (recombinant, K244 WT) (human, UniProt Q5QGZ9 65-265); assay: SPR, two-state fit (ka1); control sample
T12 construct: Made in house (Dragonfly Tx); also called hCLEC12A; hCLEC12A-His; not shown: His tag
T12 sequence: T3 sequence

[7] = target: T13, recombinant cynomolgus FcRn (cynomolgus monkey, UniProt Q8SPV9 24-297; Q8SPW0 21-119); assay: SPR 25C, pH 6.0, steady state; pH 6.0; first replicate
T13 construct: also called cFcRn; cyno FcRn
T13 sequence (Q8SPV9 24-297 limits assumed, chain 1 of 2): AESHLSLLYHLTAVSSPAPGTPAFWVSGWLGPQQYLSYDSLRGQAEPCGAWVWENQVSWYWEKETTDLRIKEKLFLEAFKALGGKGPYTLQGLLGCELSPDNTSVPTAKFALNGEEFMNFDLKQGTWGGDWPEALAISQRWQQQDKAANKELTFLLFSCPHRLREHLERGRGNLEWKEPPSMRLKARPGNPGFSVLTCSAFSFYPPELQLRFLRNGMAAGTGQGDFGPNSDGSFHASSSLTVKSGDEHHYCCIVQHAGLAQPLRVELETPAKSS
T13 sequence (Q8SPW0 21-119 limits assumed, chain 2 of 2): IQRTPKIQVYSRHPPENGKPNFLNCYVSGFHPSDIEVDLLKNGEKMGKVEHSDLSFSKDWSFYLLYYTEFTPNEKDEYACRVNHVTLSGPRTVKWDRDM

koff (mFc-cNKG2D): 0.147 s⁻¹ and 0.136 s⁻¹ and 0.145 s⁻¹ and 0.135 s⁻¹
kon (mFc-cNKG2D): 177000 M⁻¹ s⁻¹ and 164000 M⁻¹ s⁻¹ and 156000 M⁻¹ s⁻¹ and 176000 M⁻¹ s⁻¹
Kd [1]: 0.213 µM
koff [1]: 0.0225 s⁻¹
kon [1]: 105000 M⁻¹ s⁻¹
B1: F3'-1602 TriNKET (bispecific antibody, human IgG1, kappa)
chain: QLQLQESGPGLVKPSETLSLTCTVSGFSLTNYGLHWIRQPPGKCLEWIGVIWSGGKTDYNPSLKSRVTISKDTSKNQFSLKLSSVQAADTAVYYCAKYDYDDSLDYWGQGTLVTVSSGGGGSGGGGSGGGGSGGGGSDIQMTQSPSSLSASVGDRVTITCHASQNINFWLSWYQQKPGKAPKLLIYEASNLHTGVPSRFSGSGSGTRFTLTISSLQPEDIATYYCQQSHSYPLTFGCGTKLEIKGSDKTHTCPPCPAPELLGGPSVFLFPPKPKDTLMISRTPEVTCVVVDVSHEDPEVKFNWYVDGVEVHNAKTKPREEQYNSTYRVVSVLTVLHQDWLNGKEYKCKVSNKALPAPIEKTISKAKGQPREPRVYTLPPCRDELTKNQVSLTCLVKGFYPSDIAVEWESNGQPENNYKTTPPVLVSDGSFTLYSKLTVDKSRWQQGNVFSCSVMHEALHNHYTQKSLSLSPG
heavy: EVQLVESGGGLVKPGGSLRLSCAASGFTFSSYSMNWVRQAPGKGLEWVSSISSSSSYIYYADSVKGRFTISRDNAKNSLYLQMNSLRAEDTAVYYCARGAPIGAAAGWFDPWGQGTLVTVSSASTKGPSVFPLAPSSKSTSGGTAALGCLVKDYFPEPVTVSWNSGALTSGVHTFPAVLQSSGLYSLSSVVTVPSSSLGTQTYICNVNHKPSNTKVDKKVEPKSCDKTHTCPPCPAPELLGGPSVFLFPPKPKDTLMISRTPEVTCVVVDVSHEDPEVKFNWYVDGVEVHNAKTKPREEQYNSTYRVVSVLTVLHQDWLNGKEYKCKVSNKALPAPIEKTISKAKGQPREPQVCTLPPSRDELTENQVSLTCLVKGFYPSDIAVEWESNGQPENNYKTTPPVLDSDGSFFLYSWLTVDKSRWQQGNVFSCSVMHEALHNHYTQKSLSLSPG
light: DIQMTQSPSSVSASVGDRVTITCRASQGISSWLAWYQQKPGKAPKLLIYAASSLQSGVPSRFSGSGSGTDFTLTISSLQPEDFATYYCQQGVSFPRTFGGGTKVEIKRTVAAPSVFIFPPSDEQLKSGTASVVCLLNNFYPREAKVQWKVDNALQSGNSQESVTEQDSKDSTYSLSSTLTLSKADYEKHKVYACEVTHQGLSSPVTKSFNRGEC
notes: Trispecific F3' format: CLEC12A scFv-Fc paired with NKG2D Fab-Fc; Stressed and control samples of the stability studies are the same molecule; also called AB0237

Kd (Human CLEC12A-His): 0.00168 µM
koff (Human CLEC12A-His): 0.00129 s⁻¹
kon (Human CLEC12A-His): 771000 M⁻¹ s⁻¹
Kd (mFc-hNKG2D): 0.588 µM
koff (mFc-hNKG2D): 0.122 s⁻¹
kon (mFc-hNKG2D): 208000 M⁻¹ s⁻¹
Kd (Human CD16a V158): 0.171 µM
koff (Human CD16a V158): 0.0199 s⁻¹
kon (Human CD16a V158): 117000 M⁻¹ s⁻¹
Kd (Human CD32b): 6.1 µM
Kd (Cynomolgus CD64): 0.0019 µM
koff (Cynomolgus CD64): 0.00012 s⁻¹
kon (Cynomolgus CD64): 62000 M⁻¹ s⁻¹
percent surface retention [2]: 101%
B2: AB0192 TriNKET (other)
chain: EVQLVESGGGVVQPGGSLRLSCAASGFTFNAFGMHWVRQAPGKCLEWVAFISSGSTSIYYANTVKGRFTISRDNSKNTLYLQMNSLRAEDTAVYYCARDGYPTGGAMDYWGQGTSVTVSSGGGGSGGGGSGGGGSGGGGSDIQMTQSPSSLSASVGDRVTITCKASQDIYNYLSWFQQKPGKAPKPLIYRANILVSGVPSRFSGSGSGQDYTFTISSLQPEDIATYYCLQFDAFPFTFGCGTKLEIKGSDKTHTCPPCPAPELLGGPSVFLFPPKPKDTLMISRTPEVTCVVVDVSHEDPEVKFNWYVDGVEVHNAKTKPREEQYNSTYRVVSVLTVLHQDWLNGKEYKCKVSNKALPAPIEKTISKAKGQPREPRVYTLPPCRDELTKNQVSLTCLVKGFYPSDIAVEWESNGQPENNYKTTPPVLVSDGSFTLYSKLTVDKSRWQQGNVFSCSVMHEALHNHYTQKSLSLSPG
heavy: B1 heavy
light: B1 light
notes: the condition stands under assay; also called AB0192 Lot AB0192-005

Kd [4]: 0.796 µM
koff [4]: 0.132 s⁻¹
kon [4]: 166000 M⁻¹ s⁻¹
Kd [5]: 0.359 µM
koff [5]: 0.0284 s⁻¹
kon [5]: 79300 M⁻¹ s⁻¹
kon [6]: 1.01e+07 M⁻¹ s⁻¹
B3: AB0089 TriNKET (bispecific antibody, human IgG1, kappa)
chain: B1 chain with S53V, K56A, K71V, Y98G, D101G, S103T, R207D, I220F
heavy: B1 heavy
light: B1 light
notes: F3' format heterodimer of three chains; human IgG1 Fc with EW-RVT and Y349C/S354C mutations; also called AB0089 Lot AB0089-002; CLEC12A TriNKET AB0089
EC50, cytotoxicity potency; after pH 8, 40C, 2 wks [3]: 0.23 nM
EC50, cytotoxicity potency; control sample [3]: 0.00011 µM

Kd [7]: 1.1 µM
B4: F3'-1602 TriNKET (other)
chain: B1 chain
heavy: B1 heavy
light: B1 light
notes: CLEC12A scFv-Fc, NKG2D A49MI Fab-Fc, human IgG1 Fc; also called AB0237
